The source of these data is PMC314469, “Protein Interaction Networks by Proteome Peptide Scanning” (PLoS Biology, 2004).

Test in all cases: SPOT array
Assay [1] deals with T1, Boi1 SH3 (BOI1_YEAST), P38041.
T1 chain: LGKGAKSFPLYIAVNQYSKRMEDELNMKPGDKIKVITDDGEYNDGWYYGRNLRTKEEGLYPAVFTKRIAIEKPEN

The target of assay [2] is Sho1 SH3 (SHO1_YEAST), P40073.
Assay [3] deals with T2, Yhr016c SH3 (YSC84_YEAST), P32793.
T2 chain: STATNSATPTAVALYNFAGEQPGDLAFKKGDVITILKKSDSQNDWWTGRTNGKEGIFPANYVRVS

In assay [4] the target is T3, Myo5 SH3 (MYO5_YEAST), Q04439.
T3 chain: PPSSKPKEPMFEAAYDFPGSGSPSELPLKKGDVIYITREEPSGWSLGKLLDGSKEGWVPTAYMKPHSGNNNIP

The target of assay [5] is T4, Boi2 SH3 (BOI2_YEAST), P39969.
T4 chain: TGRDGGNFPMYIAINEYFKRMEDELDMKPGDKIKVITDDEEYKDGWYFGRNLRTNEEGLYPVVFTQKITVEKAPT

The target of assay [6] is T5, Yfr024 SH3 (LSB3_YEAST), P43603.
T5 chain: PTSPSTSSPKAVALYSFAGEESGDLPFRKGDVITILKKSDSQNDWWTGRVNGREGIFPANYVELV

Assay [7] concerns the target T6, Rvs167 SH3 (RV167_YEAST), P39743.
T6 chain: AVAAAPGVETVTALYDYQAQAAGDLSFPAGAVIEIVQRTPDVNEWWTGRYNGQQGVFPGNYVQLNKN

Sho1 SH3 (SHO1_YEAST), P40073, sequence (P40073 295-366): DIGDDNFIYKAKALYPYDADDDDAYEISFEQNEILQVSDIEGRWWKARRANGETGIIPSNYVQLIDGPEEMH

B1: YMR241W 242-255 (peptide)
chain: MQSKKEDPNRPKNL
In the case of B1, the normalised SPOT signal, Boehringer light units (BLU); mean over the file's lines of this peptide in assay [1] came out at 898; in assay [2], 44.8; in assay [3], 126; in assay [4], 154; in assay [5], 50.2; in assay [6], 716. The molecule also gave a normalised SPOT signal, Boehringer light units (BLU); mean over the file's lines of this peptide in assay [7] of 153.

B2: YDR265W 311-324 (peptide)
chain: MSWSKERPESPLSR
In the case of B2, the normalised SPOT signal, Boehringer light units (BLU); mean over the file's lines of this peptide turned out to be 1020 in assay [1]; 155 in assay [2]; 168 in assay [3]; 268 in assay [4]; 104 in assay [5]; 1750 in assay [6]. Besides, the normalised SPOT signal, Boehringer light units (BLU); mean over the file's lines of this peptide in assay [7] was 243.

B3: YER038C 415-428 (peptide)
chain: MYGSKFIPFGPKSQ
Take B3: the normalised SPOT signal, Boehringer light units (BLU); mean over the file's lines of this peptide in assay [1] came to 131; in assay [2], 145; in assay [3], 118; in assay [4], 290; in assay [5], 326; in assay [6], 898. In assay [7], the normalised SPOT signal, Boehringer light units (BLU); mean over the file's lines of this peptide worked out at 375.

B4: YBR096W 107-120 (peptide)
chain: MLNSKHYPYIPVAN
With B4, the normalised SPOT signal, Boehringer light units (BLU); mean over the file's lines of this peptide in assay [1] stood at 57.3; in assay [2], 35; in assay [3], 128; in assay [4], 171; in assay [5] it was 50; in assay [6] it was 595. In assay [7], this molecule registered a normalised SPOT signal, Boehringer light units (BLU); mean over the file's lines of this peptide of 368.

B5: YOR346W 669-682 (peptide)
chain: MRRSKDAPIEPPKY
With B5, the normalised SPOT signal, Boehringer light units (BLU); mean over the file's lines of this peptide in assay [1] stood at 555; in assay [2], 149; in assay [3], 1050; in assay [4], 155; in assay [5], 688; in assay [6] it was 2300. The same molecule had a normalised SPOT signal, Boehringer light units (BLU); mean over the file's lines of this peptide in assay [7] of 1200.

B6: YDL148C 252-265 (peptide)
chain: MTQPKKNPMEPKTD
As to B6, the normalised SPOT signal, Boehringer light units (BLU); mean over the file's lines of this peptide was 37.8 in assay [1]; 15.9 in assay [2]; 60.7 in assay [3]; 147 in assay [4]; 76.8 in assay [5]; 404 in assay [6]. Moreover, in assay [7], the normalised SPOT signal, Boehringer light units (BLU); mean over the file's lines of this peptide amounted to 181.

B7: YDR091C 417-430 (peptide)
chain: MKPQKIAPKFPGTV
Consider B7, for which the normalised SPOT signal, Boehringer light units (BLU); mean over the file's lines of this peptide in assay [1] was 1110; in assay [2], 142; in assay [3] it was 40.5; in assay [4] it was 416; in assay [5], 31.6; in assay [6], 394. Further, the normalised SPOT signal, Boehringer light units (BLU); mean over the file's lines of this peptide in assay [7] came out at 137.

B8: YKR031C 861-874 (peptide)
chain: MYDRKVIPRMPWHD
Regarding B8, the normalised SPOT signal, Boehringer light units (BLU); mean over the file's lines of this peptide in assay [1] was found to be 7810; in assay [2], 569; in assay [3] it was 742; in assay [4], 357; in assay [5] it was 395; in assay [6] it was 1600. The molecule further came in with a normalised SPOT signal, Boehringer light units (BLU); mean over the file's lines of this peptide in assay [7] of 1490.

B9: YLR064W 1-14 (peptide)
chain: MTVPRNRPMAPFGT
For B9, the normalised SPOT signal, Boehringer light units (BLU); mean over the file's lines of this peptide in assay [1] amounted to 1210; in assay [2] it was 186; in assay [3], 213; in assay [4], 596; in assay [5], 55.2; in assay [6], 466. The same molecule returned a normalised SPOT signal, Boehringer light units (BLU); mean over the file's lines of this peptide in assay [7] of 187.

B10: YAR035W 1-14 (peptide)
chain: MPNLKRLPIPPLQD
For the molecule B10, the normalised SPOT signal, Boehringer light units (BLU); mean over the file's lines of this peptide in assay [1] is 80.9; in assay [2] it was 24500; in assay [3], 83.4; in assay [4] it was 307; in assay [5] it was 23; in assay [6], 489. Further, the normalised SPOT signal, Boehringer light units (BLU); mean over the file's lines of this peptide in assay [7] worked out at 65.7.

B11: YDR098C 199-212 (peptide)
chain: MLFMKGSPSEPKSG
With B11, the normalised SPOT signal, Boehringer light units (BLU); mean over the file's lines of this peptide in assay [1] was determined as 30.9; in assay [2], 59.6; in assay [3], 262; in assay [4], 251; in assay [5], 128; in assay [6], 1090. The normalised SPOT signal, Boehringer light units (BLU); mean over the file's lines of this peptide in assay [7] was 377.
